We go through 18 variants from the supplement of paper PMC7125110.

First the molecules themselves.
B1: glmS ribozyme (parent)
chain: AUAAAAGCGCCAGAACUACAGAAAUGUAGUUGACGAGGAGGAGGUUUAUCGAAUUUUCGGCGGAUGCCUCCAAA

± gives the standard error. For some assays here: This sample holds only a part of the variants without activity.

Holding throughout (conditions): with glucosamine-6-phosphate
Variants of B1 are the subject of series [1]. Nature of the series: kcat; higher = faster cleavage; RNA array. In a few lines: (§1)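 On sequenced MiSeq chips, barcoded ribozyme variants were made in situ by E. coli RNA polymerase and followed at 37 °C through a hybridised Cy3 probe. Glucosamine-6-phosphate was flowed in at 40 μM to 10 mM in HEPES/KCl/Mg(OAc)2 buffer. Exponential fits to normalised per-tile medians gave kobs, and weighted Michaelis–Menten fits gave kcat and KM.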

In series [2] the parent is B1. Nature of the series: self-cleavage kobs at 640 uM GlcN6P; higher = faster cleavage; RNA array. In a few lines: as §1
In series [3] the parent is B1. Description: self-cleavage kobs at 2500 uM GlcN6P; higher = faster cleavage; RNA array. In a few lines: as §1
Series [4] covers variants of B1. Nature of the series: KM; higher = weaker cofactor use; RNA array. In a few lines: as §1
The variants in series [5] derive from B1. Nature of the series: self-cleavage kobs at 160 uM GlcN6P; higher = faster cleavage; RNA array. In a few lines:
as §1

In series [6] the parent is B1. Description: self-cleavage kobs at 10000 uM GlcN6P; higher = faster cleavage; RNA array. In a few lines: as §1
The variants in series [7] derive from B1. Nature of the series: self-cleavage kobs at 40 uM GlcN6P; higher = faster cleavage; RNA array. In a few lines:
as §1

As to C50U C70A, the kcat with glucosamine-6-phosphate [1] is 2.87e-05 ± 6.9e-06 s⁻¹. The “self-cleavage kobs at 640 uM GlcN6P” value in the series with glucosamine-6-phosphate [2] stood at 3.61e-05 ± 1.4e-05 s⁻¹. The “self-cleavage kobs at 2500 uM GlcN6P” value with glucosamine-6-phosphate [3] worked out at 3.43e-05 ± 1.5e-05 s⁻¹.
Turning to C67A C68U, the kcat with glucosamine-6-phosphate [1] was determined as 0.000125 ± 1.7e-05 s⁻¹. Besides, the Michaelis-Menten constant (KM) with glucosamine-6-phosphate [4] came to 497 ± 200 µM. Besides, the “self-cleavage kobs at 160 uM GlcN6P” value with glucosamine-6-phosphate [5] was determined as 3.25e-05 ± 7.3e-06 s⁻¹. The “self-cleavage kobs at 640 uM GlcN6P” value in the series with glucosamine-6-phosphate [2] came to 6.61e-05 ± 5.3e-06 s⁻¹. Besides, the “self-cleavage kobs at 2500 uM GlcN6P” value with glucosamine-6-phosphate [3] worked out at 0.000126 ± 9.8e-06 s⁻¹. Moreover, the “self-cleavage kobs at 10000 uM GlcN6P” value with glucosamine-6-phosphate [6] worked out at 0.000106 ± 1e-05 s⁻¹.
As to A42C U57G, the kcat in the series with glucosamine-6-phosphate [1] was < 1e-05 s⁻¹. The “self-cleavage kobs at 40 uM GlcN6P” value with glucosamine-6-phosphate [7] was < 1e-05 s⁻¹. Also, in the series with glucosamine-6-phosphate [5], the “self-cleavage kobs at 160 uM GlcN6P” value is < 1e-05 s⁻¹.
In the case of A12U C58U, the kcat with glucosamine-6-phosphate [1] was 7.97e-05 ± 5.4e-06 s⁻¹. Besides, the KM in the series with glucosamine-6-phosphate [4] was determined as 662 ± 220 µM. Besides, the “self-cleavage kobs at 40 uM GlcN6P” value with glucosamine-6-phosphate [7] is < 1e-05 s⁻¹. Moreover, the “self-cleavage kobs at 640 uM GlcN6P” value with glucosamine-6-phosphate [2] was found to be 4.45e-05 ± 1.4e-05 s⁻¹. Besides, the “self-cleavage kobs at 2500 uM GlcN6P” value with glucosamine-6-phosphate [3] came to 5.86e-05 ± 9.3e-06 s⁻¹. In addition, the “self-cleavage kobs at 10000 uM GlcN6P” value in the series with glucosamine-6-phosphate [6] was 7.81e-05 ± 1.1e-05 s⁻¹.
As to A14G G51A, the kcat with glucosamine-6-phosphate [1] was 1.48e-05 ± 1.8e-06 s⁻¹.
As for A39G U56A, the kcat with glucosamine-6-phosphate [1] worked out at 0.0171 ± 0.0023 s⁻¹. Moreover, the KM with glucosamine-6-phosphate [4] amounted to 1670 ± 340 µM. Also, the “self-cleavage kobs at 40 uM GlcN6P” value with glucosamine-6-phosphate [7] is 0.000348 ± 6.9e-05 s⁻¹. The “self-cleavage kobs at 160 uM GlcN6P” value with glucosamine-6-phosphate [5] came out at 0.00162 ± 0.00029 s⁻¹. Further, the “self-cleavage kobs at 640 uM GlcN6P” value with glucosamine-6-phosphate [2] stood at 0.0049 ± 0.00073 s⁻¹. Moreover, in the series with glucosamine-6-phosphate [3], the “self-cleavage kobs at 2500 uM GlcN6P” value is 0.0133 ± 0.0025 s⁻¹. Besides, the “self-cleavage kobs at 10000 uM GlcN6P” value in the series with glucosamine-6-phosphate [6] is 0.0137 ± 0.0019 s⁻¹.
Regarding G35A G37A G44U U49G C67G, the kcat with glucosamine-6-phosphate [1] is < 1e-05 s⁻¹. Moreover, the “self-cleavage kobs at 2500 uM GlcN6P” value with glucosamine-6-phosphate [3] was < 1e-05 s⁻¹.
Turning to G26U, in the series with glucosamine-6-phosphate [1], the turnover number (kcat) came to 0.0318 ± 0.01 s⁻¹. For the same variant, in the series with glucosamine-6-phosphate [4], the KM was 1200 ± 480 µM. The “self-cleavage kobs at 40 uM GlcN6P” value in the series with glucosamine-6-phosphate [7] was 0.00112 ± 7.2e-05 s⁻¹. Also, the “self-cleavage kobs at 160 uM GlcN6P” value with glucosamine-6-phosphate [5] was found to be 0.00324 ± 0.00048 s⁻¹. Also, in the series with glucosamine-6-phosphate [2], the “self-cleavage kobs at 640 uM GlcN6P” value was determined as 0.00931 ± 0.0012 s⁻¹. The “self-cleavage kobs at 2500 uM GlcN6P” value with glucosamine-6-phosphate [3] turned out to be 0.0179 ± 0.0032 s⁻¹. Further, the “self-cleavage kobs at 10000 uM GlcN6P” value with glucosamine-6-phosphate [6] is 0.0456 ± 0.0065 s⁻¹.
As to A39C G44C, the kcat with glucosamine-6-phosphate [1] amounted to 1.03e-05 ± 1.3e-06 s⁻¹. In addition, in the series with glucosamine-6-phosphate [4], the KM came to 3630 ± 1200 µM. The “self-cleavage kobs at 160 uM GlcN6P” value with glucosamine-6-phosphate [5] was < 1e-05 s⁻¹.
As to A15U U57G, in the series with glucosamine-6-phosphate [1], the kcat turned out to be 1.7e-05 ± 6.8e-06 s⁻¹.
With A15U U57A, the kcat in the series with glucosamine-6-phosphate [1] came out at 4.21e-05 ± 3.2e-07 s⁻¹. Further, the KM in the series with glucosamine-6-phosphate [4] amounted to 2340 ± 76 µM. The “self-cleavage kobs at 10000 uM GlcN6P” value with glucosamine-6-phosphate [6] is 3.41e-05 ± 5.8e-06 s⁻¹.
For G43C C67A, in the series with glucosamine-6-phosphate [1], the kcat was found to be 0.000634 ± 8.3e-05 s⁻¹. For the same variant, the Michaelis constant (KM) with glucosamine-6-phosphate [4] worked out at 1520 ± 410 µM. Moreover, the “self-cleavage kobs at 160 uM GlcN6P” value with glucosamine-6-phosphate [5] came to 4.22e-05 ± 1.1e-05 s⁻¹. Besides, in the series with glucosamine-6-phosphate [2], the “self-cleavage kobs at 640 uM GlcN6P” value stood at 0.000205 ± 2e-05 s⁻¹. Moreover, in the series with glucosamine-6-phosphate [3], the “self-cleavage kobs at 2500 uM GlcN6P” value turned out to be 0.000479 ± 5.7e-05 s⁻¹. Also, the “self-cleavage kobs at 10000 uM GlcN6P” value in the series with glucosamine-6-phosphate [6] came to 0.00052 ± 4.3e-05 s⁻¹.
In the case of U56C U65A, the kcat in the series with glucosamine-6-phosphate [1] stood at 0.0012 ± 0.00021 s⁻¹. The KM in the series with glucosamine-6-phosphate [4] came out at 7470 ± 2000 µM. Further, the “self-cleavage kobs at 160 uM GlcN6P” value in the series with glucosamine-6-phosphate [5] amounted to 2.29e-05 ± 1.1e-05 s⁻¹. Besides, the “self-cleavage kobs at 640 uM GlcN6P” value with glucosamine-6-phosphate [2] stood at 0.000115 ± 2.5e-05 s⁻¹. Moreover, the “self-cleavage kobs at 2500 uM GlcN6P” value in the series with glucosamine-6-phosphate [3] amounted to 0.000269 ± 5.1e-05 s⁻¹. Moreover, in the series with glucosamine-6-phosphate [6], the “self-cleavage kobs at 10000 uM GlcN6P” value worked out at 0.000702 ± 8.3e-05 s⁻¹.
Turning to A15C A52G, in the series with glucosamine-6-phosphate [1], the catalytic constant (kcat) came out at 0.000755 ± 0.00022 s⁻¹. Further, in the series with glucosamine-6-phosphate [4], the KM came out at 7750 ± 3200 µM. For the same variant, the “self-cleavage kobs at 640 uM GlcN6P” value in the series with glucosamine-6-phosphate [2] stood at 6.9e-05 ± 1.1e-05 s⁻¹. For the same variant, in the series with glucosamine-6-phosphate [3], the “self-cleavage kobs at 2500 uM GlcN6P” value stood at 0.000164 ± 2e-05 s⁻¹. Besides, the “self-cleavage kobs at 10000 uM GlcN6P” value with glucosamine-6-phosphate [6] was determined as 0.000449 ± 5.5e-05 s⁻¹.
Take A14G G32C: in the series with glucosamine-6-phosphate [1], the kcat was 0.000222 ± 9e-06 s⁻¹. In the series with glucosamine-6-phosphate [4], the KM came to 1900 ± 190 µM. For the same variant, in the series with glucosamine-6-phosphate [2], the “self-cleavage kobs at 640 uM GlcN6P” value is 5.72e-05 ± 1.5e-05 s⁻¹. Moreover, the “self-cleavage kobs at 2500 uM GlcN6P” value with glucosamine-6-phosphate [3] was determined as 0.000115 ± 4.1e-05 s⁻¹. The “self-cleavage kobs at 10000 uM GlcN6P” value in the series with glucosamine-6-phosphate [6] was 0.000188 ± 2.8e-05 s⁻¹.
Take C11A G37A: in the series with glucosamine-6-phosphate [1], the kcat was < 1e-05 s⁻¹.
On to A14C U57A, for which, in the series with glucosamine-6-phosphate [1], the kcat stood at 0.00019 ± 1.7e-05 s⁻¹. The “self-cleavage kobs at 2500 uM GlcN6P” value in the series with glucosamine-6-phosphate [3] is 3.61e-05 ± 1.6e-05 s⁻¹. Besides, the “self-cleavage kobs at 10000 uM GlcN6P” value with glucosamine-6-phosphate [6] is 9.25e-05 ± 2.2e-05 s⁻¹.
Turning to G37U C50A, the kcat in the series with glucosamine-6-phosphate [1] was < 1e-05 s⁻¹. The “self-cleavage kobs at 640 uM GlcN6P” value in the series with glucosamine-6-phosphate [2] is < 1e-05 s⁻¹. Further, the “self-cleavage kobs at 10000 uM GlcN6P” value with glucosamine-6-phosphate [6] was < 1e-05 s⁻¹.

The kcat is the maximal rate divided by the concentration of active sites. A word on the KM: it is the substrate concentration at which the rate is half of its maximum.
